In US6890900B2, “Methods for treating or preventing diseases of the oral cavity” (Campina B.V., priority 2001, dated 2005):

Test system: oral culture (oral swab from a healthy adult, oral flora)
Assay: LF/GMP assay, viable plate count (pour plate) of broth culture
Type: cell-based, Streptococcus salivaris
Parameters: key to MIBC: NCF: No Effective Concentration Found
Conditions: 35° C.; for Colony Counts: viable plate count
Method: Bacterial strains used in this study were Pseudomonas aeruginosa ATCC #27853, Streptococcus mutans ATCC #33535, Streptococcus pyogenes ATCC #19615, and Actinobacillus haemophilus ATCC #43717 and an oral swab from a healthy adult. Bacteria were grown on blood/BHT media (Brain Heart Infusion Agar with protease peptone, sodium chloride, glucose, di-sodium phosphate, and agar, Oxoid, Hampshire England, Sheep's Blood) in the presence of 5% CO2 at 35° C. […] The 0.5 McFarland value is approximately equivalent to 1.0×10^8 organisms. One ml of the appropriate bacterial dilution was taken using a sterile pipette and introduced into 8 ml of sterilized BHI broth. […] By pipette, 9 ml of broth was placed into medium test tubes as means of a control and 8 ml test tubes were prepared for the concentration tests). […] This solution was filtered through a 0.45 μm filter. […] Example for calculating 2,500 ppm dilution (1,000 ppm=0.1%): [formula] [formula] [formula] To study the kinetics of LF/GMP binding, each strain of bacteria was taken separately with a sterile pipette and placed into an 8 ml BHI broth test tube, vortexed, and incubated in the presence of 1 ml of LF or GMP for 18-24 hours at 35° C. with 5% CO2. In the combination procedure, 0.5 ml of both LF and […] were taken as 1 ml inoculations. This technique was used to determine the density of living (viable) cells in inoculated broth cultures. It involves plating a bacterial sample and counting the resulting colonies after incubation. A serial dilution of the original broth was taken prior to plating. The serial dilution is necessary to reduce the density of organisms in order to create countable plates. Only plates containing between 25 and 250 colonies are considered countable. Cell densities are traditionally recorded as CFU (colony forming unit)/ml. […] Formula: [formula] The assays required the use of a pour plate technique. The pour plate technique adds a step to the conventional serial dilution. The 1 ml of dilution is added to a warm emulsion of dilute nutrient (BHI) agar to produce an agar overlay in the petri plates. After incubation, the bacterial growth covers the entire plate but individual cellular movement has been restricted by the soft agar overlay. Each colony formed is assumed to have originated from a single CFU. The plates were gently mixed, inverted, and incubated for 18-24 hour at 35° C. There is a mixture of microorganisms obtained in “normal oral flora.” Testing a swab taken from a healthy mouth cavity aided in the identification of the most common mouth flora. Experiments were conducted with the mouth culture to determine the antimicrobial effects of LF and GMP. Oral cultures were grown on BHI agar with added sheep's blood for 24 hours at 35° C. 5% CO2. […] These plates were incubated for another 24 hours. Here, isolated colonies were taken and were streaked on a BHI/Blood plate for growth of a pure culture. Streaking a plate produces isolated growth of microbial species in a mixed culture sample. Once isolated, pure cultures can be tested for species identification. The isolated colonies were Gram-stained to distinguish between Gram-positive and Gram-negative cells. The Gram stain is a differential stain in which a decolorization step occurs between the application of two basic stains. The next step was a catalase test to identify the organisms that produce the enzyme catalase. It was used to differentiate members of the catalase-positive Micrococcaceae and Staphylococci from the catalase-negative Streptococcaceae. Hydrogen peroxide was added to the bacteria and observed for a reaction (evidence of bubbles being formed). In the oral culture, three isolated colonies were tested for identification from a swabbed mouth cavity. […] This negative-catalase reaction was a confirmation of a streptococcus species. The API 20 Strep test was done on all three pure cultures to identify each species. The numbers were the results of the API 20 test. […]

B1: LF: Bovine lactoferrin, iron-binding glycoprotein purified from milk, provided by DMV International (protein, UniProt P24627 20-708, looked up)
Lactotransferrin: APRKNVRWCTISQPEWFKCRRWQWRMKKLGAPSITCVRRAFALECIRAIAEKKADAVTLDGGMVFEAGRDPYKLRPVAAEIYGTKESPQTHYYAVAVVKKGSNFQLDQLQGRKSCHTGLGRSAGWIIPMGILRPYLSWTESLEPLQGAVAKFFSASCVPCIDRQAYPNLCQLCKGEGENQCACSSREPYFGYSGAFKCLQDGAGDVAFVKETTVFENLPEKADRDQYELLCLNNSRAPVDAFKECHLAQVPSHAVVARSVDGKEDLIWKLLSKAQEKFGKNKSRSFQLFGSPPGQRDLLFKDSALGFLRIPSKVDSALYLGSRYLTTLKNLRETAEEVKARYTRVVWCAVGPEEQKKCQQWSQQSGQNVTCATASTTDDCIVLVLKGEADALNLDGGYIYTAGKCGLVPVLAENRKSSKHSSLDCVLRPTEGYLAVAVVKKANEGLTWNSLKDKKSCHTAVDRTAGWNIPMGLIVNQTGSCAFDEFFSQSCAPGADPKSRLCALCAGDDQGLDKCVPNSKEKYYGYTGAFRCLAEDVGDVAFVKNDTVWENTNGESTADWAKNLNREDFRLLCLDGTRKPVTEAQSCHLAVAPNHAVVSRSDRAAHVKQVLLHQQALFGKNGKNCPDKFCLFKSETKNLLFNDNTECLAKLGGRPTYEEYLGTEYVTAIANLKKCSTSPLLEACAFLTR
Colony Counts (50 ppm, 24 h): 4.8 × 10^8 | Colony Counts (100 ppm, 24 h): 4.2 × 10^8 | Colony Counts (250 ppm, 24 h): 4.3 × 10^8 | Colony Counts (500 ppm, 24 h): 4.0 × 10^8 | Colony Counts (1,000 ppm, 24 h): 3.9 × 10^8 | Colony Counts (3,000 ppm, 24 h): 3.4 × 10^8 | Total Log Reduction (Lactoferrin/GMP 250/0 ppm (LF alone)): 0 log | Total Log Reduction (Lactoferrin/GMP 3,000/0 ppm (LF alone)): 0 log | # Log Reductions (at the MIBC, vs control): 0 log | effect on growth (in words) (single agent, any tested concentration): not effected | MIBC (single agent, 24 h, 5% CO2): NCF
